Assay results: patent US6528275B1, “Substrates and inhibitors of proteolytic enzymes” (Peptide Therapeutics Limited, priority 1996, dated 2003)

What was measured:
Assay in all cases: Der pI substrate assay with FRET peptides (fluorescence, Km, kcat/Km)
Format in all cases: biochemical, house dust mite
Conditions in all cases: other: purified Der pI; peptides SEQ ID Nos. 1-76; pH 8.25
[1] = substrate: CC(C)CC[C@H](NC(=O)[C@H](C)NC(=O)[C@H](CC1CCCCC1)NC(=O)c1ccccc1N)C(=O)N[C@@H](CO)C(=O)N[C@@H](Cc1ccc(O)c([N+](=O)[O-])c1)C(=O)N[C@@H](CC(=O)O)C(N)=O
Description: (§1) Using the general techniques described above, the following compounds were prepared and assayed as potential substrates against Der pI purified as described above.
(§2) Each mixture of 20 compounds in the libraries of the apparatus described herein was screened at a concentration of 1.0 μM per compound in an assay against the cysteinyl protease Der pI.
(§3) Plate assays were carried out in 96 well plate format, using 0.1 ug of Der pI per 100 μL assay volume in each well and using 20 μM of the substrate. All assays were performed in Assay Buffer (AB; 50 mM potassium phosphate, pH 8.25 containing 1 mM ethylenediaminetetraacetic acid (EDTA) and 1 mM dithiothreitol (DTT). The Der pI enzyme is pre-activated by addition of DTT and this in incubated at room temperature for 5 min. prior to initiation of the assay. As an example for the screening methodology, each well contains a 5 μL of a 20 μM solution of the test compound in DMSO, 10 μL of a 200 μM aqueous solution of the substrate, 2, and 85 μL of Der pI in AB is added to initiate the reaction. Enzyme activity is monitored by fluorescence using 320 nm for excitation and 420 nm for the emission wavelengths using a Labsystems Fluroskan Ascent machine. Kinetic measurements were carried out using a Hitachi F-4500 Fluorescence Spectrophotometer.

[2] = substrate: CC(C)CC[C@H](NC(=O)[C@H](C)NC(=O)[C@H](Cc1ccc(-c2ccccc2)cc1)NC(=O)c1ccccc1N)C(=O)N[C@@H](CO)C(=O)N[C@@H](Cc1ccc(O)c([N+](=O)[O-])c1)C(=O)N[C@@H](CC(=O)O)C(N)=O
Description: as §1, §2, §3

[3] = substrate: CC(C)CC[C@H](NC(=O)[C@H](C)NC(=O)[C@H](Cc1ccc(-c2ccccc2)cc1)NC(=O)c1ccccc1N)C(=O)N[C@H](C(=O)N[C@@H](Cc1ccc(O)c([N+](=O)[O-])c1)C(=O)N[C@@H](CC(=O)O)C(N)=O)C(C)(C)C
Description: as §1, §2, §3

[4] = substrate: CC(C)[C@H](NC(=O)c1ccccc1N)C(=O)N[C@@H](C)C(=O)N[C@@H](CC1CCCCC1)C(=O)N[C@@H](CO)C(=O)N[C@@H](Cc1ccc(O)c([N+](=O)[O-])c1)C(=O)N[C@@H](CC(=O)O)C(N)=O
Description: as §1, §2, §3

B1: Der pI (Dermatophagoides pteronyssinus) (protein)
chain: TNACSINGNAPAEIDLRQMRTVTPIRMQGGCGSCWAFSGVAATESAYLAYRNQSLDLAEQELVDCASQHGCHGDTIPRGIEYIQHNGVVQESYYRYVAREQSCRRPNAQRFGISNYCQIYPPNVNKIREALAQTHSAIAVIIGIKDLDAFRHYDGRTIIQRDNGYQPNYHAVNIVGYSNAQGVDYWIVRNSWDTNWGDNGYGYFAANIDLMMIEEYPYVVIL
notes: tissue SmithKline-Beecham, U.K (crude mite extract); host or cells: crude house dust mite extract
B1 was tested, and the Km [1] was 9 µM, the Km [2] was 2.5 µM and the Km [3] was 4 µM. The Km [4] was 5 µM.
